Measured values reported in PMC12207370, “Macrocyclic Peptide Probes for Immunomodulatory Protein CD59: Potent Modulators of Bacterial Toxin Activity and Antibody‐Dependent Cytotoxicity” (Angewandte Chemie (International Ed. in English), 2025).

Biological target: T1, biotinylated CD59 (Homo sapiens, UniProt P13987)
T1 construct: Recombinant soluble human CD59 with an additional C-terminal cysteine residue
T1 sequence (P13987 26-102 limits assumed): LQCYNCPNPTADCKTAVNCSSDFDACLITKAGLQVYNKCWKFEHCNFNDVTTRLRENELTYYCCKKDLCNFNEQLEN
Assay: mRNA-display cyclic peptide screen against CD59-biotin, NGS abundance after 6th selection round
Settings: for Counts (raw counts for peptide sequence), Seq I: NGS sample Seq I; for Counts (raw counts for peptide sequence), Seq I / Counts (raw counts for peptide sequence), Seq II / Counts Seq I / Counts Seq II: sheet R6 (6th selection round); for Counts (raw counts for peptide sequence), Seq II: NGS sample Seq II; for Percentage of the pool, averaged across the two sequencing samples: average of Seq I and Seq II; for Percentage of the pool, averaged across the two sequencing samples / Percentage of the pool, Seq I / Percentage of the pool, Seq II / Percentage Seq I / Percentage Seq II / Percentage Average: sheet R6; for Percentage of the pool, Seq I: counts normalised by total counts of NGS sample Seq I; for Percentage of the pool, Seq II: counts normalised by total counts of NGS sample Seq II; for Percentage Seq I: counts normalised by total counts of sample Seq I; for Percentage Seq I / Percentage Seq II: percentage of the pool; for Percentage Seq II: counts normalised by total counts of sample Seq II; for Percentage Average: percentage of the pool averaged across the two sequencing samples; for Counts Seq I / Counts Seq II: raw NGS counts of peptide sequence; for Counts Seq I: sequencing sample Seq I; for Counts Seq II: sequencing sample Seq II
Outline: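 Peptide–mRNA fusions were made by in vitro translation with a customised PURE express kit. The kit lacked release factor 1 and methionine and was supplemented with […] initiator tRNA carrying N-chloroacetyl-d-tyrosine. Thioether macrocycles were formed, then enriched and amplified over iterative rounds on CD59-biotin immobilised on streptavidin beads. NGS read counts per sequence were recorded after the 6th selection round.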

For FIRGNSTSVLY, the “Counts (raw counts for peptide sequence), Seq I” value was 58, the “Counts (raw counts for peptide sequence), Seq II” value was 8 and the “Percentage of the pool, averaged across the two sequencing samples” value was 0.016%. For the same sequence, the “Percentage of the pool, Seq I” value was 0.013% and the “Percentage of the pool, Seq II” value was 0.019%.
FIRGNSTSVLC was tested, and the “Counts (raw counts for peptide sequence), Seq I” value was 36, the “Counts (raw counts for peptide sequence), Seq II” value was 5 and the “Percentage of the pool, averaged across the two sequencing samples” value was 0.010%. For the same sequence, the “Percentage of the pool, Seq I” value was 0.008% and the “Percentage of the pool, Seq II” value was 0.012%.
For CFRYRLGLTST, the “Percentage Seq I” value was 0.062%, the “Percentage Seq II” value was 0.058% and the “Percentage Average” value was 0.060%. The “Counts Seq I” value was 271 and the “Counts Seq II” value was 25.
For ASWLTAPCYV, the “Percentage Seq I” value was 0.032%, the “Percentage Seq II” value was 0.019% and the “Percentage Average” value was 0.025%. For the same sequence, the “Counts Seq I” value was 138 and the “Counts Seq II” value was 8.
In the case of CYTYRSLDPQSV, the “Counts (raw counts for peptide sequence), Seq I” value is reported as 42, the “Counts (raw counts for peptide sequence), Seq II” value is reported as 9 and the “Percentage of the pool, averaged across the two sequencing samples” value is reported as 0.015%. The “Percentage of the pool, Seq I” value was 0.010% and the “Percentage of the pool, Seq II” value was 0.021%.
For PWTWGNRSSVRG, the “Counts (raw counts for peptide sequence), Seq I” value was 49, the “Counts (raw counts for peptide sequence), Seq II” value was 10 and the “Percentage of the pool, averaged across the two sequencing samples” value was 0.017%. The “Percentage of the pool, Seq I” value was 0.011% and the “Percentage of the pool, Seq II” value was 0.023%.
With CFSARAVLDGGW the “Counts (raw counts for peptide sequence), Seq I” value was 59, the “Counts (raw counts for peptide sequence), Seq II” value was 3 and the “Percentage of the pool, averaged across the two sequencing samples” value was 0.010%. The “Percentage of the pool, Seq I” value was 0.013% and the “Percentage of the pool, Seq II” value was 0.007%.
In the case of FVTGNRGHTRG, the “Percentage Seq I” value is reported as 0.024%, the “Percentage Seq II” value is reported as 0.016% and the “Percentage Average” value is reported as 0.020%. The “Counts Seq I” value was 105 and the “Counts Seq II” value was 7.
In the case of VVRGGTAFRYE, the “Percentage Seq I” value is reported as 0.022%, the “Percentage Seq II” value is reported as 0.026% and the “Percentage Average” value is reported as 0.024%. For the same sequence, the “Counts Seq I” value was 96 and the “Counts Seq II” value was 11.
CYTAGSASWSRG was tested, and the “Percentage Seq I” value was 0.726%, the “Percentage Seq II” value was 0.680% and the “Percentage Average” value was 0.703%. The “Counts Seq I” value was 3176 and the “Counts Seq II” value was 293.
With SARGNRQIQYY the “Percentage Seq I” value was 0.026%, the “Percentage Seq II” value was 0.028% and the “Percentage Average” value was 0.027%. The “Counts Seq I” value was 114 and the “Counts Seq II” value was 12.
In the case of FARGDRNHQFY, the “Counts (raw counts for peptide sequence), Seq I” value is reported as 63, the “Counts (raw counts for peptide sequence), Seq II” value is reported as 5 and the “Percentage of the pool, averaged across the two sequencing samples” value is reported as 0.013%. For the same sequence, the “Percentage of the pool, Seq I” value was 0.014% and the “Percentage of the pool, Seq II” value was 0.012%.
FVTGNRDYTRG was tested, and the “Percentage Seq I” value was 0.050%, the “Percentage Seq II” value was 0.063% and the “Percentage Average” value was 0.056%. The “Counts Seq I” value was 220 and the “Counts Seq II” value was 27.
For SAWGNRQIQYH, the “Counts (raw counts for peptide sequence), Seq I” value was 65, the “Counts (raw counts for peptide sequence), Seq II” value was 7 and the “Percentage of the pool, averaged across the two sequencing samples” value was 0.016%. For the same sequence, the “Percentage of the pool, Seq I” value was 0.015% and the “Percentage of the pool, Seq II” value was 0.016%.
With SFAKRVAAQGGC the “Percentage Seq I” value was 0.030%, the “Percentage Seq II” value was 0.021% and the “Percentage Average” value was 0.026%. The “Counts Seq I” value was 133 and the “Counts Seq II” value was 9.
In the case of FVRGDLHSVLG, the “Percentage Seq I” value is reported as 0.058%, the “Percentage Seq II” value is reported as 0.044% and the “Percentage Average” value is reported as 0.051%. The “Counts Seq I” value was 253 and the “Counts Seq II” value was 19.
For WILGSRWWTRS, the “Percentage Seq I” value was 0.097%, the “Percentage Seq II” value was 0.111% and the “Percentage Average” value was 0.104%. For the same sequence, the “Counts Seq I” value was 424 and the “Counts Seq II” value was 48.
In the case of YVYGSRDRCWG, the “Percentage Seq I” value is reported as 0.445%, the “Percentage Seq II” value is reported as 0.441% and the “Percentage Average” value is reported as 0.443%. For the same sequence, the “Counts Seq I” value was 1946 and the “Counts Seq II” value was 190.
SAWGNRQIQCY was tested, and the “Counts (raw counts for peptide sequence), Seq I” value was 55, the “Counts (raw counts for peptide sequence), Seq II” value was 5 and the “Percentage of the pool, averaged across the two sequencing samples” value was 0.012%. The “Percentage of the pool, Seq I” value was 0.013% and the “Percentage of the pool, Seq II” value was 0.012%.
In the case of FVRGDRYSVLG, the “Percentage Seq I” value is reported as 0.045%, the “Percentage Seq II” value is reported as 0.039% and the “Percentage Average” value is reported as 0.042%. The “Counts Seq I” value was 198 and the “Counts Seq II” value was 17.
For WTRGSKDYARG, the “Counts (raw counts for peptide sequence), Seq I” value was 49, the “Counts (raw counts for peptide sequence), Seq II” value was 5 and the “Percentage of the pool, averaged across the two sequencing samples” value was 0.011%. The “Percentage of the pool, Seq I” value was 0.011% and the “Percentage of the pool, Seq II” value was 0.012%.
CYGGRSFIYAWS was tested, and the “Counts (raw counts for peptide sequence), Seq I” value was 47, the “Counts (raw counts for peptide sequence), Seq II” value was 6 and the “Percentage of the pool, averaged across the two sequencing samples” value was 0.012%. For the same sequence, the “Percentage of the pool, Seq I” value was 0.011% and the “Percentage of the pool, Seq II” value was 0.014%.
In the case of CFAKRLSLDAL, the “Percentage Seq I” value is reported as 0.177%, the “Percentage Seq II” value is reported as 0.176% and the “Percentage Average” value is reported as 0.177%. For the same sequence, the “Counts Seq I” value was 774 and the “Counts Seq II” value was 76.
In the case of CFANRLYGSDSH, the “Percentage Seq I” value is reported as 0.031%, the “Percentage Seq II” value is reported as 0.035% and the “Percentage Average” value is reported as 0.033%. For the same sequence, the “Counts Seq I” value was 135 and the “Counts Seq II” value was 15.
For SAWGNRYIAYY, the “Counts (raw counts for peptide sequence), Seq I” value was 47, the “Counts (raw counts for peptide sequence), Seq II” value was 6 and the “Percentage of the pool, averaged across the two sequencing samples” value was 0.012%. For the same sequence, the “Percentage of the pool, Seq I” value was 0.011% and the “Percentage of the pool, Seq II” value was 0.014%.
In the case of TLSTNRDLIRLPAAAAAAARTGGG, the “Counts (raw counts for peptide sequence), Seq I” value is reported as 63, the “Counts (raw counts for peptide sequence), Seq II” value is reported as 7 and the “Percentage of the pool, averaged across the two sequencing samples” value is reported as 0.015%. For the same sequence, the “Percentage of the pool, Seq I” value was 0.014% and the “Percentage of the pool, Seq II” value was 0.016%.
